# T1: ECF-PanT (whole pantothenate transporter complex: EcfA, EcfA', EcfT, PanT) (Lactobacillus delbrueckii subsp. …)
# T1 construct: Four subunits, Mw ~120 kDa as printed for a full ECF-transporter complex; source: SEC in DDM; copies: + + +
# T1 chain 1: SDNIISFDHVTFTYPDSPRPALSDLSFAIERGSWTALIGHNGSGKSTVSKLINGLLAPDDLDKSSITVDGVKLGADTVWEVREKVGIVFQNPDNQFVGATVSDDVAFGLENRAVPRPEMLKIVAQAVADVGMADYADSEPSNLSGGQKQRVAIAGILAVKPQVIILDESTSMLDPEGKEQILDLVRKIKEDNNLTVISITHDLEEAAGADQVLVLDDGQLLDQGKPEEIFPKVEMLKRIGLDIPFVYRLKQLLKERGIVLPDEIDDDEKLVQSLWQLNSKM
# T1 chain 2: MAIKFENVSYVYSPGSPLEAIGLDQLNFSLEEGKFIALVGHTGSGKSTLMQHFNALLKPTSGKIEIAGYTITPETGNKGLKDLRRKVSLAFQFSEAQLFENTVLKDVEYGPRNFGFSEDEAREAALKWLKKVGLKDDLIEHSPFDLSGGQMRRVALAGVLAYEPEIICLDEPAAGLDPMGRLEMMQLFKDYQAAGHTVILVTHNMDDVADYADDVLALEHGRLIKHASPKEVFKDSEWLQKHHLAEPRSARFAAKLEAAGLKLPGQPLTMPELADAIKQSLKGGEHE
# T1 chain 3: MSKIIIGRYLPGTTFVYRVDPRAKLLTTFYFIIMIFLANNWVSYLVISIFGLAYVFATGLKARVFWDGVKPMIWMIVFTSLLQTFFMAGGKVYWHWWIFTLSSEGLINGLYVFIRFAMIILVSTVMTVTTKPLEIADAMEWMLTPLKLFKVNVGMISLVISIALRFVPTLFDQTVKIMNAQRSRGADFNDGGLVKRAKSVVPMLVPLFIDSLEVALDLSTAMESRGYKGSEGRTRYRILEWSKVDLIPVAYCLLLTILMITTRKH
# B1: ECF-PanT (Lactobacillus delbrueckii subsp. bulgaricus ATCC 11842 = JCM 1002) (protein)
# chain 1: MSDNIISFDHVTFTYPDSPRPALSDLSFAIERGSWTALIGHNGSGKSTVSKLINGLLAPDDLDKSSITVDGVKLGADTVWEVREKVGIVFQNPDNQFVGATVSDDVAFGLENRAVPRPEMLKIVAQAVADVGMADYADSEPSNLSGGQKQRVAIAGILAVKPQVIILDESTSMLDPEGKEQILDLVRKIKEDNNLTVISITHDLEEAAGADQVLVLDDGQLLDQGKPEEIFPKVEMLKRIGLDIPFVYRLKQLLKERGIVLPDEIDDDEKLVQSLWQLNSKM
# chain 2: T1 chain 2
# notes: with Energy-coupling factor transporter transmembrane protein EcfT; Pantothenate ECF transporter S component PanT
# B2: ECF-FolT2 (Lactobacillus delbrueckii subsp. bulgaricus ATCC 11842 = JCM 1002) (protein)
# chain 1: B1 chain 1
# chain 2: T1 chain 2
# notes: with Energy-coupling factor transporter transmembrane protein EcfT; Folate ECF transporter S component FolT2
# B3: nanobody CA14381 (Nb81) (VHH)
# VHH: QVQLVESGGGLVQPGGSLRLSCTASGFTLDDYAIGWFRQAPGKEREGISCISRSGSSTTYADSVKGRFTISRDRAENTVYLQMNSLKPEDTADYYCAATPVWYWSCAVKVGPYDYWGQGTQVTVSS
# notes: the nanobody chain of PDB 6ZG3 (solved here); Llama (Lama glama) nanobody selected by phage display against ECF-PanT; Cloned in a Golden Gate variant of pMESy4 (GenBank KF415192); also called nanobody 81; Nanobody 81; source: E. coli WK6 periplasm, purified (Ni-Sepharose, desalting)
# How the values were obtained:
# ECF-FolT2 = test system: T2, ECF-FolT2; experiment: initial rate of radiolabelled uptake into proteoliposomes; assay type: biochemical, Lactobacillus delbrueckii subsp. bulgaricus; conditions: 10 mM lumenal Mg-ATP, pH 7.5, 30 °C; labelled compound (3H tracer); read-out: apparent Km
# T2 construct: four-subunit complex, 10xHis-TEV on EcfA, Strep on FolT2; expressed in E. coli MC1061; purified in DDM, reconstituted in proteoliposomes; ~120 kDa; Energy-coupling factor transporter transmembrane protein EcfT
# ECF-PanT = test system: T3, ECF-PanT; experiment: as above; assay type: biochemical, Lactobacillus delbrueckii subsp. bulgaricus; conditions: 5 mM lumenal Mg-ATP, pH 7.5, 30 °C; labelled compound (3H tracer); read-out: apparent Km
# T3 construct: four-subunit complex, 10xHis-TEV on EcfA, Strep on PanT; expressed in E. coli MC1061; purified in DDM, reconstituted in proteoliposomes; ~120 kDa; Energy-coupling factor transporter transmembrane protein EcfT
# [1] = substrate: Nc1ncnc2c1ncn2[C@@H]1O[C@H](COP(=O)(O)OP(=O)(O)OP(=O)(O)O)[C@@H](O)[C@H]1O; experiment: initial rate of radiolabelled pantothenate uptake into proteoliposomes at varied lumenal ATP; assay type: biochemical, Lactobacillus delbrueckii; conditions: 100 nM pantothenate, Mg2+, pH 7.5, 30 °C, sigmoidal, cooperative
# [2] = substrate: Nc1ncnc2c1ncn2[C@@H]1O[C@H](COP(=O)(O)OP(=O)(O)OP(=O)(O)O)[C@@H](O)[C@H]1O; experiment: initial rate of radiolabelled folate uptake into proteoliposomes at varied lumenal ATP; assay type: biochemical, Lactobacillus delbrueckii; conditions: 100 nM folate, Mg2+, pH 7.5, 30 °C, sigmoidal, cooperative
# [3] = target: T1, ECF-PanT (whole pantothenate …); experiment: crystal structure; ECF-PanT-Nanobody 81 complex at 5 mg/mL with 5 mM MgATPγS; 70 mM sodium citrate pH 4.5, 22% (v/v) PEG300, 5°C; 2.8 Å, space group P1, two copies of the complex in the asymmetric unit; conditions: both partners purified
molecule,measurement,setting,value
Nc1nc2ncc(CNc3ccc(C(=O)N[C@@H](CCC(=O)O)C(=O)O)cc3)nc2c(=O)[nH]1 [folate],Km,ECF-FolT2,0.082 ± 0.02 µM
CC(C)(CO)[C@@H](O)C(=O)NCCC(=O)O [pantothenate],Km,ECF-PanT,0.046 ± 0.011 µM
B1,Km,[1],5600 ± 1000 µM
B2,Km,[2],5600 ± 1700 µM
B3,binding result,[3],binds
